Assay results as given in paper PMC6651182, “Importance of the Choice of a Recombinant System to Produce Large Amounts of Functional Membrane Protein hERG” (International Journal of Molecular Sciences, 2019).

Tests used:
[1] = target: T1, hERG(S1-coil) (Homo sapiens, UniProt Q12809, N598Q); test: Electrophysiology on planar lipid bilayers with purified hERG(S1-coil) (stable HEK, DDM); assay type: biochemical; details: samples pre-incubated with 10 µM toxin; lipid bilayer; data not shown
T1 construct: hERG(362-675) + coiled-coil
Description: Crude membranes prepared from P. pastoris, Sf9 or stable HEK cells expressing hERG(S1-coil) were solubilized in 50 mM HEPES, pH 7.5, 300 mM KCl containing 1% DPC or DDM and 0.2% cholesteryl-hemisuccinate (CHS, Sigma Aldrich) at slow rotation at +4 °C for 1 h. Samples were centrifuged at 25,000 g for 15 min at +4 °C. […] After transferring to a column and washing the resin with 15 CV of 50 mM HEPES, pH 7.5, 300 mM KCl, 50 mM imidazole, 0.1% (w/v) DPC and 0.02% (w/v) CHS, hERG(S1-coil) was eluted with 250 mM imidazole in the same buffer. For purification of hERG(S1-coil) overexpressed in Sf9 cells in DPC, the supernatant was diluted 2-fold in 50 mM HEPES, pH 7.5 and transferred to a Strep-Tactin column (Strep-TactinSuperflow, IBA, Göttingen, Germany) at a ratio of 1 mL resin for 100 mL supernatant. […] Purified samples were analysed by SDS-PAGE and Western blot and protein concentrations determined by BCA assay.
Planar lipid bilayers were formed at room temperature by painting a solution of azolectin (Type IVS, Sigma Aldrich) at 45 mg/mL in decane across a 200 µm aperture in a polysulfonate cup (Warner Instruments, Hamden, CT, USA) separating two chambers. […] A total of 500 ng of chimeric hERG protein was added in the cis chamber and the resulting channel activity recorded for at least 2 min. […]

[2] = target: hERG-wt (Homo sapiens, UniProt Q12809); test: Two-electrode voltage clamp in Xenopus oocytes, inhibition of hERG-wt tail current; details: mean ± SEM, n = 7
Description: (§1) (A). Current-voltage relationship for hERG-wt and hERG(S1-coil). Currents measured at the end of a 4 seconds long depolarizing pulse (from −70 to 30 mV) were normalized to the maximal current for hERG-wt (n = 21) and hERG(S1-coil) (n = 19). (B). Steady-state voltage-dependence of activation. […] (C).
(§2) Stage V–VI oocytes were removed from female Xenopus under tricaine anaesthesia. […] After intensive washing with OR2 solution, oocytes were injected with RNA preparation (about 30 nL per oocyte) and recorded 2–5 days after injection. Currents were recorded at room temperature using the two-electrode voltage clamp method. Electrodes were pulled from borosilicate glass and filled with 3 M KCl. Currents were measured by a Geneclamp 500 amplifier (Molecular Devices, San Jose, CA, USA) and digitized by a Digidata 1200 converter (Molecular Devices) using Clampex 5 software (Molecular Devices). […] We determined the concentration to obtain the half maximal inhibition (IC50) by measuring the peak tail current recorded during the second pulse at −50 mV in the presence of increasing concentrations of inhibitor and normalized the value to the current measured in the absence of inhibitor. […] The significance of the difference between two results was determined using the unpaired Student’s test set at the 0.01 level.

[3] = target: hERG(S1-coil) (Homo sapiens, UniProt Q12809); test: Two-electrode voltage clamp in Xenopus oocytes, inhibition of hERG(S1-coil) tail current; details: mean ± SEM, n = 8
Description: as §1, §2

## BeKm-1 (RPTDIKCSESYQCFPVCKSRFGKTNGRCVNGFCDCF; UniProt Q9BKB7 22-57, looked up)
[1]
  current at −100 mV: did not have any current
[2]
  IC50: 21.7 ± 2.76 nM
[3]
  IC50: 24.9 ± 3.77 nM
